Paper PMC3576117

Biological target: biotinylated, tyrosine-phosphorylated CLEC-2 alanine substitution mutant peptide (2–5 Ala)
Assay: SPR

Row | fold decrease in affinity against the wild type peptide [fold] | Substance
1 | 4 | GST-tagged recombinant Syk C-terminal SH2 domain (domain or fragment)
2 | 3 | GST-tagged recombinant Syk tandem SH2 domains (both SH2 domains with the linker region) (domain or fragment)
